How the values were obtained:
[1] = target: GVL peptide-HLA-A2 complex (human); test: cell-based or functional assay
[2] = target: GVL peptide-HLA-A2 complex (human); test: flow cytometry, T2 cells pulsed with 50 to 0.1 µg/ml GVL peptide

CDC of T2 cells pulsed with 50 to 0.1 µg/ml GVL peptide, antibody 10 µg/ml [1]: 53 to 70%
MFI [2]: 250 to 350 MFI
Substance: BB7.2 mAb (antibody)

Reference: patent US20090226474A1, “Antibodies as T cell receptor mimics, methods of production and uses thereof” (priority 2004, published 2009)
